Assay results: patent US10117916B2, “Peptides and combination of peptides for use in immunotherapy against CLL and other cancers” (immatics biotechnologies GmbH, priority 2015, dated 2018)

target: HLA-A*02:01 (Homo sapiens, UniProt P04439, D140Y/D185E/D98H/E176V/E277Q/G131W/G231S/I119V/I121R/I166T/I218V/L300P/L318F/N151K/N90K/P208A/P217A/Q86G/Q94H/R138H/R169H/T345S); assay: MHC binding assay: UV-ligand exchange with β2m ELISA (peptide exchange yield); conditions: MHC class I binding score; binding to HLA-A*02:01 ranged by peptide exchange yield (UV-ligand exchange, β2m ELISA)
Excerpt: Candidate peptides for T cell based therapies according to the present invention were further tested for their MHC binding capacity (affinity). The individual peptide-MHC complexes were produced by UV-ligand exchange, where a UV-sensitive peptide is cleaved upon UV-irradiation, and exchanged with the peptide of interest as analyzed. Only peptide candidates that can effectively bind and stabilize the peptide-receptive MHC molecules prevent dissociation of the MHC complexes. To determine the yield of the exchange reaction, an ELISA was performed based on the detection of the light chain (β2m) of stabilized MHC complexes. The assay was performed as generally described in Rodenko et al. (Rodenko et al., 2006).
96 well MAXISorp plates (NUNC) were coated over night with 2 ug/ml streptavidin in PBS at room temperature, washed 4× and blocked for 1 h at 37° C. in 2% BSA containing blocking buffer. Refolded HLA-A*02:01/MLA-001 monomers served as standards, covering the range of 15-500 ng/ml. Peptide-MHC monomers of the UV-exchange reaction were diluted 100 fold in blocking buffer. Samples were incubated for 1 h at 37° C., washed four times, incubated with 2 ug/ml HRP conjugated anti-β2m for 1 h at 37° C., washed again and detected with TMB solution that is stopped with […]. Absorption was measured at 450 nm. Candidate peptides that show a high exchange yield (preferably higher than 50%, most preferred higher than 75%) are generally preferred for a generation and production of antibodies or fragments thereof, and/or T cell receptors or fragments thereof, as they show sufficient avidity to the MHC molecules and prevent dissociation of the MHC complexes.

Row | Substance | Peptide Exchange
1 | 99 (ILIFHSVAL; listed as Homo sapiens) [compound 99] | ″+++″ (≥50 = +++)
2 | 58 (YIQQGIFSV; listed as Homo sapiens) [compound 58] | ″+++″ (≥50 = +++)
3 | 48 (FLSPQQPPLL; listed as Homo sapiens) [compound 48] | ″+++″ (≥50 = +++)
4 | 40 (FLDEDDMSL; listed as Homo sapiens) [compound 40] | ″++″ (≥20% = ++)
5 | 82 (GLQSGVDIGV; listed as Homo sapiens) [compound 82] | ″+++″ (≥50 = +++)
6 | 23 (ALYLTEVFL; listed as Homo sapiens) [compound 23] | ″++++″ (≥75% = ++++)
7 | 78 (GLPSFLTEV; listed as Homo sapiens) [compound 78] | ″+++″ (≥50 = +++)
8 | 128 (LLSEEEYHL; listed as Homo sapiens) [compound 128] | ″+++″ (≥50 = +++)
9 | 88 (ILDEIGADVQA; listed as Homo sapiens) [compound 88] | ″+++″ (≥50 = +++)
10 | 163 (SQLDISEPYKV; listed as Homo sapiens) [compound 163] | ″+++″ (≥50 = +++)
11 | 156 (SLNIGDVQL; listed as Homo sapiens) [compound 156] | ″+++″ (≥50 = +++)
12 | 157 (SLNIRDFTM; listed as Homo sapiens) [compound 157] | ″+++″ (≥50 = +++)
13 | 76 (GLLRIIPYL; listed as Homo sapiens) [compound 76] | ″+++″ (≥50 = +++)
14 | 24 (AMAGDVVYA; listed as Homo sapiens) [compound 24] | ″+++″ (≥50 = +++)
15 | 64 (KLLESVASA; listed as Homo sapiens) [compound 64] | ″+++″ (≥50 = +++)
16 | 4 (VIAELPPKVSV; listed as Homo sapiens) [compound 4] | ″+++″ (≥50 = +++)
17 | 35 (FILPSSLYL; listed as Homo sapiens) [compound 35] | ″+++″ (≥50 = +++)
18 | 105 (KLMNDIADI; listed as Homo sapiens) [compound 105] | ″++″ (≥20% = ++)

Row | Substance | Peptide Exchange
19 | 155 (SLMLEVPAL; listed as Homo sapiens) [compound 155] | ″+++″ (≥50 = +++)
20 | 93 (ILFNTQINI; listed as Homo sapiens) [compound 93] | ″+++″ (≥50 = +++)
21 | 151 (SLFDSAYGA; listed as Homo sapiens) [compound 151] | ″+++″ (≥50 = +++)
22 | 50 (FLFEPVVKAFL; listed as Homo sapiens) [compound 50] | ″+++″ (≥50 = +++)
23 | 116 (LLIGATMQV; listed as Homo sapiens) [compound 116] | ″+++″ (≥50 = +++)
24 | 75 (GLSIFAQDLRL; listed as Homo sapiens) [compound 75] | ″++″ (≥20% = ++)
25 | 74 (GLLRASFLL; listed as Homo sapiens) [compound 74] | ″++″ (≥20% = ++)
26 | 20 (ALVDPGPDFVV; listed as Homo sapiens) [compound 20] | ″+++″ (≥50 = +++)
27 | 73 (GLLEVISALQL; listed as Homo sapiens) [compound 73] | ″+++″ (≥50 = +++)
28 | 44 (FLLSINDFL; listed as Homo sapiens) [compound 44] | ″+++″ (≥50 = +++)
29 | 28 (AVLHLLLSV; listed as Homo sapiens) [compound 28] | ″++″ (≥20% = ++)
30 | 29 (AVLQAVTAV; listed as Homo sapiens) [compound 29] | ″+++″ (≥50 = +++)
31 | 158 (SLPEAPLDV; listed as Homo sapiens) [compound 158] | ″+++″ (≥50 = +++)
32 | 62 (GIIDGSPRL; listed as Homo sapiens) [compound 62] | ″+++″ (≥50 = +++)
33 | 162 (SMKDDLENV; listed as Homo sapiens) [compound 162] | ″++″ (≥20% = ++)
34 | 91 (ILDLNTYNV; listed as Homo sapiens) [compound 91] | ″+++″ (≥50 = +++)
35 | 15 (ALPEVSVEA; listed as Homo sapiens) [compound 15] | ″+++″ (≥50 = +++)

More lines, now with the values ahead:

Row | Peptide Exchange | Substance
36 | ″+++″ (≥50 = +++) | 203 (ALLSSQLAL; listed as Homo sapiens) [compound 203]
37 | ″+++″ (≥50 = +++) | 295 (ALLQKLQQL; listed as Homo sapiens) [compound 295]
38 | ″+++″ (≥50 = +++) | 184 (VLSHNLYTV; listed as Homo sapiens) [compound 184]
39 | ″++″ (≥20% = ++) | 296 (FIAPTGHSL; listed as Homo sapiens) [compound 296]
40 | ″+++″ (≥50 = +++) | 219 (ALLNLLESA; listed as Homo sapiens) [compound 219]
41 | ″+++″ (≥50 = +++) | 272 (VLDELPPLI; listed as Homo sapiens) [compound 272]
42 | ″+++″ (≥50 = +++) | 354 (FIMDDPAGNSYL; listed as Homo sapiens) [compound 354]
43 | ″+++″ (≥50 = +++) | 289 (ILEEQPMDMLL; listed as Homo sapiens) [compound 289]
44 | ″+++″ (≥50 = +++) | 297 (FLVEPQEDTRL; listed as Homo sapiens) [compound 297]
45 | ″+++″ (≥50 = +++) | 261 (SLVEAQGWLV; listed as Homo sapiens) [compound 261]
46 | ″+++″ (≥50 = +++) | 223 (ALWVSQPPEI; listed as Homo sapiens) [compound 223]
47 | ″+++″ (≥50 = +++) | 381 (YLLEENKIKL; listed as Homo sapiens) [compound 381]
48 | ″+++″ (≥50 = +++) | 333 (VTLEFPQLIRV; listed as Homo sapiens) [compound 333]
49 | ″+++″ (≥50 = +++) | 217 (ALDEPPYLTV; listed as Homo sapiens) [compound 217]
50 | ″+++″ (≥50 = +++) | 375 (VLWFKPVEL; listed as Homo sapiens) [compound 375]
51 | ″+++″ (≥50 = +++) | 275 (VLLFIEHSV; listed as Homo sapiens) [compound 275]
52 | ″+++″ (≥50 = +++) | 191 (YIFDGSDGGV; listed as Homo sapiens) [compound 191]
53 | ″+++″ (≥50 = +++) | 239 (ILAGEMLSV; listed as Homo sapiens) [compound 239]
54 | ″+++″ (≥50 = +++) | 313 (LMADLEGLHL; listed as Homo sapiens) [compound 313]

Row | Peptide Exchange | Substance
55 | ″+++″ (≥50 = +++) | 254 (QLIPKLIFL; listed as Homo sapiens) [compound 254]
56 | ″+++″ (≥50 = +++) | 270 (TVLPVPPLSV; listed as Homo sapiens) [compound 270]
57 | ″+++″ (≥50 = +++) | 291 (ILLNEDDLVTI; listed as Homo sapiens) [compound 291]
58 | ″++++″ (≥75% = ++++) | 336 (YMAVTTQEV; listed as Homo sapiens) [compound 336]
59 | ″+++″ (≥50 = +++) | 292 (AAALIIHHV; listed as Homo sapiens) [compound 292]
60 | ″+++″ (≥50 = +++) | 280 (YTLDSLYWSV; listed as Homo sapiens) [compound 280]
61 | ″+++″ (≥50 = +++) | 250 (LLVQEPDGLMV; listed as Homo sapiens) [compound 250]
62 | ″+++″ (≥50 = +++) | 339 (GLWGTVVNI; listed as Homo sapiens) [compound 339]
63 | ″+++″ (≥50 = +++) | 170 (TLTFRVETV; listed as Homo sapiens) [compound 170]
64 | ″+++″ (≥50 = +++) | 355 (FIWPMLIHI; listed as Homo sapiens) [compound 355]
65 | ″+++″ (≥50 = +++) | 249 (LLPTGVFQV; listed as Homo sapiens) [compound 249]
66 | ″+++″ (≥50 = +++) | 301 (AASPIITLV; listed as Homo sapiens) [compound 301]
67 | ″+++″ (≥50 = +++) | 252 (NLLDPGSSYLL; listed as Homo sapiens) [compound 252]
68 | ″+++″ (≥50 = +++) | 222 (ALWELSLKI; listed as Homo sapiens) [compound 222]
69 | ″+″ (≥10% = +) | 196 (YLLLQTYVL; listed as Homo sapiens) [compound 196]
70 | ″+++″ (≥50 = +++) | 325 (TLENGVPCV; listed as Homo sapiens) [compound 325]
71 | ″+++″ (≥50 = +++) | 241 (ILGDILLKV; listed as Homo sapiens) [compound 241]
72 | ″+++″ (≥50 = +++) | 299 (ILEENIPVL; listed as Homo sapiens) [compound 299]
